Test results: the DeepSol protein solubility set

Assay: soluble on expression in E. coli; label from the status in PepcDB or PDB records

Sequence | soluble on expression in E. coli
METVQLRNPPRRQLKKLDEDSLTKQPEEVFDVLEKLGEGSYGSVYKAIHKETGQIVAIKQVPVESDLQEIIKEISIMQQCDSPHVVKYYGSYFKNTDLWIVMEYCGAGSVSDIIRLRNKTLTEDEIATILQSTLKGLEYLHFMRKIHRDIKAGNILLNTEGHAKLADFGVAGQLTDTMAKRNTVIGTPFWMAPEVIQEIGYNCVADIWSLGITAIEMAEGKPPYADIHPMRAIFMIPTNPPPTFRKPELWSDNFTDFVKQCLVKSPEQRATATQLLQHPFVRSAKGVSILRDLINEAMDVKLKRQESQQREMDQDDEENSEEDEMDSGTMVRAVGDEMGTVRVASTMTDGANTMIEHDDTLPSQLGTMVINAEDEEEEG | soluble
MSSGKRRNPLGLSLPPTVNEQSESGEATAEEATATVPLEEQLKKLGLTEPQTQRLSEFLQVKEGIKELSEDMLQTEGELGHGNGGVVNKCVHRKTGVIMARKLVHLEIKPSVRQQIVKELAVLHKCNSPFIVGFYGAFVDNNDISICMEYMDGLSLDIVLKKVGRLPEKFVGRISVAVVRGLTYLKDEIKILHRDVKPSNMLVNSNGEIKLCDFGVSGMLIDSMANSFVGTRSYMAPERLTGSHYTISSDIWSFGLSLVELLIGRYPVPAPSQAEYATMFNVAENEIELADSLEEPNYHPPSNPASMAIFEMLDYIVNGPPPTLPKRFFTDEVIGFVSKCLRKLPSERATLKSLTADVFFTQYADHDDQGEFAVFVKGTINLPKLNP | not soluble
MEAVLYVSHGSRIAAARHEAARFVEQCRRAIDIPIQELCFVELAEPDIVTGVDRCVAQGATRVIVVPLLLLSAGHAKHDIPAALDIARRRHPSVDILCGAPFGVHEAMIDIMIDRISEQSAPLDGESMILLVGRGSSDPDTKRDMSAIAALLKEKTNVPHVDVCFLAAIRPTLDEGLERAHASAYRRVFVVPYLLFTGVLMKTIERRLQGFSVSDKQWHLCSYLGDHPRLVLLIQQQVLSLSSVKKGA | soluble
MSASAPAAEGEGTPTQPASEKEPEMPGPREESEEEEDEDDEEEEEEEKEKSLIVEGKREKKKVERLTMQVSSLQREPFTIAQGKGQKLCEIERIHFFLSKKKTDELRNLHKLLYNRPGTVSSLKKNVGQFSGFPFEKGSVQYKKKEEMLKKFRNAMLKSICEVLDLERSGVNSELVKRILNFLMHPKPSGKPLPKSKKTCSKGSKKERNSSGMARKAKRTKCPEILSDESSSDEDEKKNKEESSDDEDKESEEEPPKKTAKREKPKQKATSKSKKSVKSANVKKADSSTTKKNQNSSKKESESEDSSDDEPLIKKLKKPPTDEELKETIKKLLASANLEEVTMKQICKKVYENYPTYDLTERKDFIKTTVKELIS | soluble
MSLKISVIIPIYNAENYIEKAFSSLKNQTLAQNEFEILCIDDKSTDNSLGKLKQLSKIHKNMRIINLHKNSGGPMIPRNKGIKEAKGKYIIFLDNDDYLGEEALERLFIQAEKNQSEVIFGKYVGINGRGVPQSQFKKGNRNEADILADNLVYTLAPHKMFQTAFLKTKKIYFDPNILIGEDQYFVMKAYVNAKVITVLADYDYYYVVSRGDENLSIKESKMDPREICKVVPAVVKEIEASPLHPTYKKTLIRAYIQRYFNDYITGNYNLDYKNMSERQKTFVQVMKDTIVCHLDEKMKNELPTKTRFMIDIIAENNPEKLIDVRMQMENFSKNQVVKVENGYIKGRFRKMRPQLAYDDVYDINHLNSSKVQLHSVTLQNNNYLLDISLEQSLLTRFQTALRLCLKERDGNLEIWISPLKMLSTERGIYAVDSTLFNHTCIWDLFIESEINGFKNRKRVGKDRDFEEIVSSNNTPLLIQNNSYQIKAYFTTPFSNLSFQIISEEGHHHHHH | soluble
KQVENYDSWEDLVSSIDTIERKDDGTLEIYLTWKNGAISHHPSTITNKKCPQKMLQFYESHLTFRENE | soluble
MREFGEKIKRLRLAKKISRSEFCGDESELSIRQLIRIENGESRPILTKLKYIAERLGVEDYKLMPSYIELDKEYLELKYFLMRTPTYEDETIAQKKESVFDKIFEEYYDRLPEEERFIIPNYSYLALTNYTVQKLPEKLVEILSFW | not soluble
MYVENSYLSKQLCFLFYVSSKEIIKKYTNYLKEYDLTYTGYIVLMAIENDEKLNIKKLGERVFLDSGTLTPLLKKLEKKDYVVRTREEKDERNLQISLTEQGKAIKSPLAEISVKVFNEFNISEREASDIINNLRNFVSKNFDYSDKK | not soluble
GMSEIDANYRALAQQVADKVAGRVIALDRLPESLLTAYRSLCDELLADRDGRFTRAWDQLPDSASSLFERCVFHGFYLANAWIQLSIVARDISELQDTDEAIAEQEYSGLYVRVAEAALKESVKKLKKARTDRSMYNSMREVMGI | soluble
